From US20230295345A1 (published 2023)

Tests used:
[1] = target: T1, TMPRSS6 expressed in transfected HepG2 cells (HAMP-luciferase reporter assay) (UniProt Q8IU80 1-811, limits assumed); experiment: cell-based or functional assay
T1 sequence (looked up): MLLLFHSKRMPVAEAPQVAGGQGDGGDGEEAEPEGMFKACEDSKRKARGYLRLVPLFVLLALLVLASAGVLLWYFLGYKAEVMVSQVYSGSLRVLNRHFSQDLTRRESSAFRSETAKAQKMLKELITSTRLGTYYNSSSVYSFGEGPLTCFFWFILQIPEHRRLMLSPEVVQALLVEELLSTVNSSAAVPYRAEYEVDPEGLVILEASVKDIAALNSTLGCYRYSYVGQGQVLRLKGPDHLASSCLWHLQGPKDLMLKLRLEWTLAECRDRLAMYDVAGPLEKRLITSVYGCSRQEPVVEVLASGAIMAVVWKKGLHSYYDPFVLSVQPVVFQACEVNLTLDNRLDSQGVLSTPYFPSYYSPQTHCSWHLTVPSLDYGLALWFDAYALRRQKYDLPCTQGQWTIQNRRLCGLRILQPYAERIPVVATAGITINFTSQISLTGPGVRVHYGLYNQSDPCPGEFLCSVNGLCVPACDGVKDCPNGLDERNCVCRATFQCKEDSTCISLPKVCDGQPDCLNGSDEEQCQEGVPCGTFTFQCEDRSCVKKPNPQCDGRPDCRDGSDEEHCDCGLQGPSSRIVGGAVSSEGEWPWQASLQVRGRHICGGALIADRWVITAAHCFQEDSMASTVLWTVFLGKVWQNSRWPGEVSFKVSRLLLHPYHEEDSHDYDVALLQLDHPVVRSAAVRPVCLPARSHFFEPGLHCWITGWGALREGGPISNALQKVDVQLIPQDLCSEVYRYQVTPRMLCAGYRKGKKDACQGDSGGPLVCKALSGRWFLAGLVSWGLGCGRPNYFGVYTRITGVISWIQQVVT

[2] = target: T2, matriptase (ST14) over-expressed in HEK293T cells (human, UniProt Q9Y5Y6 1-855); experiment: FACS on permeabilized HEK293T cells over-expressing ST14
T2 construct: also called matriptase-1
T2 sequence: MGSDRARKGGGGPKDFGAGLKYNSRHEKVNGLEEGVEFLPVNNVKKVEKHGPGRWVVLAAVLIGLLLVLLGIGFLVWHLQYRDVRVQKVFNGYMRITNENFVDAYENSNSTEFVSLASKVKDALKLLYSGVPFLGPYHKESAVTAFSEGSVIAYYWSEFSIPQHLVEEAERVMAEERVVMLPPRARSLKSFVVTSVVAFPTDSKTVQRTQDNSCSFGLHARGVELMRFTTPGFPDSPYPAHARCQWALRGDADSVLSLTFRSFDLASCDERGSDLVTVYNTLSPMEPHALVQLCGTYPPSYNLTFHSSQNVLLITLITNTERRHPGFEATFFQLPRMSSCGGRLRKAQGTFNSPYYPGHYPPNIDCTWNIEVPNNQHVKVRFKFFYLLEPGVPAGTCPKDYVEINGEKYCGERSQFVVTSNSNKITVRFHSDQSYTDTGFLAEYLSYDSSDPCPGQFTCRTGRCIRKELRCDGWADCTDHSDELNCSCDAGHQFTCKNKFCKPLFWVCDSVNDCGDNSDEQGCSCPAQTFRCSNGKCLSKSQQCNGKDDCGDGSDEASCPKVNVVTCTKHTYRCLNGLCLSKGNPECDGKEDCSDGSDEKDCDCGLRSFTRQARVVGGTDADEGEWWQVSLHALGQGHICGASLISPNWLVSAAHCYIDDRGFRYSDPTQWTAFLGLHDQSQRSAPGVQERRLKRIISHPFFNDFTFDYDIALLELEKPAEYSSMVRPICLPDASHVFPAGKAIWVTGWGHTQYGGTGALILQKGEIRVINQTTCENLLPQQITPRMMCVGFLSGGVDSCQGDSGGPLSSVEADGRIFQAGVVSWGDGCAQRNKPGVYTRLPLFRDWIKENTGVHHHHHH
Description: To determine if anti-TMPRSS6 antibodies bind to homologous matriptases, HEK293T cells over-expressing matriptase (ST14) (SEQ ID NO: 100) (FIGS. 5B, 5E, 5H, 5K, 5N, 5Q), and HEK293T cells over-expressing matriptase-3 (TMPRSS7) (SEQ ID NO: 101) (FIGS. 5C, 5F, 5I, 5L, 5O, 5R) were collected (generated in house). HEK293T cells stably expressing human TMPRSS6 (matriptase-2) (SEQ ID NO:97) (generated by LakePharma Inc as described above, FIGS. 5A, 5D, 5G, 5J, 5M, 5P) were used as a positive control and HEK293T cells (FIGS. 5A-5R) were used as a negative control (as described above). Cells were blocked and permeabilized with dPBS + 3% BSA + 0.1% Tween-20 before incubation with various anti-TMPRSS6 antibodies diluted in dPBS + 3% BSA + 0.1% Tween-20. Cells were incubated with anti-TMPRSS6 antibodies and their humanized variants at a concentration of roughly 1 µg/ml for 1 hr. After incubation, cells were washed with dPBS and incubated with goat anti-mouse IgG conjugated with AlexaFluor-488 (Invitrogen, FIGS. 5A-5I) or goat anti-human IgG conjugated with Allophycocyanin (APC) (Jackson Immuno Research, FIGS. 5J-5R) as a 2° antibody. At last, cells were washed with dPBS and re-suspended with dPBS + 1 mM EDTA, and then subjected to FACS analysis using a NOVOCYTE® Flow Cytometer. Bound antibody was determined by excitation at 488 nm and measurement of emission (FITC-A) at 530 nm (FIGS. 5A-5I) or by excitation at 640 nm and measurement of emission (APC-A) at 675 nm (FIGS. 5J-5R). Results for these assays are shown in histogram plots in FIGS. 5A-5R.

Binder	EC50, HAMP promoter activity (HAMP-luciferase reporter assay in HepG2 cells) [1]	binding result [2]
MWTx-001 anti-TMPRSS6 antibody (antibody, mouse IgG2a, kappa, V domains shown, Mouse monoclonal antibody from a hybridoma (ATCC PTA-126759)) VH: QVQLQQPGAELAKPGASVKMSCKASGYTFTSYWITWVKQRPGQDLEWIGNIYPGSGSTYYNEKFKSKATLTVDTSSRTAYMQLSSLTSADSAVYYCAPYDSDYAMDYWGQGTSVTVSS VL: DIKMTQSPSSMYASLGERVTITCKASQDINNYLSWFQQKPGKSPKTLIYRANRLVDGVPSRVSGSGSGQDYSLTISSLEYEDVGIYFCLQYDEFPLTFGAGTKLELKR	3 µg/mL	no binding (tested: roughly 1 µg/ml)
MWTx-002 anti-TMPRSS6 antibody (antibody, mouse IgG2b, kappa, V domains shown, Mouse monoclonal antibody from a hybridoma (ATCC PTA-126760)) VH: EVQLQQSGAELVKPGASVKLSCTASGFNIKDYYIHWVKERTEQGLEWFGRIDPEDGESEYAPKFQGKATLTADTSSNTAYLQLSSLTSEDTAVYYCTRGDSMMVTYFDYWGQGTTLTVSS VL: DIVMTQSHKFMSTSVGDRVSITCKASQDVSTAVAWYQQKPGQSPKLLIYWAFTRHTGVPDRFTSTGSGTDYALTISSVQAEDLALYYCQQHYRSPWTFGGGTKLEIKR	1 µg/mL	no binding (tested: roughly 1 µg/ml)
MWTx-003 anti-TMPRSS6 antibody (antibody, mouse IgG2b, kappa, V domains shown, Mouse monoclonal antibody from a hybridoma (ATCC PTA-126761); also called r4K12B (recombinantly expressed version, same HC and LC)) VH: EVQLQQSGAELVKPGASVKLSCTASGFNIEDYYIHWVKERTEQGLEWIGRIDPEDGETTYAPQFQGKATIIPDTSSNTAYMQLSSLTSEDAAVYYCARSIYLDPMDYWGQGTSVTVSS VL: DIVMTQSHKFMSTSVGDRVSITCKASQDVTTAVAWYQQKPGQSPKILIYWATTRHTGVPDRFTGSISGTTYILTISSVQAEDLALYYCQQHYSTPYTFGGGTKLEIKR	2 µg/mL	no binding (tested: roughly 1 µg/ml)
hzMWTx-001Var anti-TMPRSS6 antibody (antibody, human IgG1, kappa, N297A, V domains shown, Humanized variant of MWTx-001, human IgG1/kappa) VH: EVQLVQSGAEVKKPGASVKVSCKASGYTFTSYWITWVRQAPGQRLEWIGNIYPGSGSTYYNEKFKSKATITRDTSSRTAYMELSSLRSEDTAVYYCAPYDADYAMDYWGQGTLVTVSS VL: DIQMTQSPSSLSASVGDRVTITCKASQDISNYLSWFQQKPGKAPKLLIYRANRLVEGVPSRFSGSGSGTDFTLTISSLQPEDFATYFCLQYDEFPLTFGGGTKVEIKR	0.8 µg/mL	no binding (tested: roughly 1 µg/ml)
hzMWTx-002Var anti-TMPRSS6 antibody (antibody, human IgG1, kappa, N297A, V domains shown, Humanized variant of MWTx-002, human IgG1/kappa) VH: EVQLVQSGAEVKKPGASVKVSCKASGFNIKDYYIHWVRQATGQGLEWMGRIDPEDAESEYAPKFQGRVTITADTSTDTAYMELSSLRSEDTAVYYCTRGDSMMVTYFDYWGQGTLVTVSS VL: DIQMTQSPSSLSASVGDRVTITCKASQDVSTAVAWYQQKPGKAPKLLIYWAFTRHTGVPSRFSGSGSGTDYALTISSLQPEDFATYYCQQHYRSPWTFGGGTKVEIKR	0.3 µg/mL	no binding (tested: roughly 1 µg/ml)
hzMWTx-003Var anti-TMPRSS6 antibody (antibody, human IgG1, kappa, L234A L235A, V domains shown, Humanized variant of MWTx-003, human IgG1/kappa) VH: QVQLVQSGAEVKKPGASVKVSCKASGFNIEDYYMHWVRQAPGQRLEWMGRIDPEDAETTYSPKFQGRVTIIPDTSANTAYMELSSLRSEDTAVYYCARSIYLDPMDYWGQGTLVTVSS VL: DIQMTQSPKSLSASVGDRVTITCRASQDVTTALAWYQQKPGQSPKLLIYWATTRHSGVPSRFSGSGSGTDFTLTISSLQPEDFATYYCQQHYSTPYTFGQGTKLEIKR	0.3 µg/mL	no binding (tested: roughly 1 µg/ml)
